Assay: soluble on expression in E. coli; label from the status in PepcDB or PDB records

Sequence	soluble on expression in E. coli
MHIEEKTTQLQDQQQVSITIYNENLALVRDLRHVPLEKGINKLAWCDVSAQIRPETALLRTPEKTSSIRMVEQNFDFDLLTPEKLLEKYLGRSVNVIYVNPATGAETVEAAIVLSISGGVVLKFKDRIETGTPGRIAFPDVPGSLHDHPTLSLVLDGATPGKHELELSYLTSGLSWQADYVARLDANDGRLDLSGLVTLANHSGIAYPDAHLQLVSGEVNQVTPEPPQARKMMAMVADAAEYQAVREESLSEYHLYSLPVPTTLAENQSKQITLMSVTDIPVSQEFLLRGTNAYYFSRYSNLDDKLKPVVLIQFKNEGEGLGVPLPRGTIRVYQNDSRDNLQFLGEDHIDHTAKNEEVRVKLGKATDITAMRTQTDFQQLDTPSRRFTETATDITAMRTQTDFQQLDTPSRRFTETAHQIEIHNARQEAVTIRVQEPIPGDWMMISESQPHTKSSANLVEWLVKVPTNQKTILSYRVRIKHLEHHHHHH	not soluble
MDAELFPRTRAETAPGAVHLPDWLSPGQQRELLDACREWARPPAGLRTVRTPGGGTMTARQVCLGRHWYPYGYAATAVDGDGAPVKPFPARLDGLARRAVTDALGAEAVAPAPYDIALINFYDADARMGMHRDADERTDAPVVSLSLGDTCVFRFGNPETRTRPYTDTELRSGDLFVFGGPSRLAYHGVPRVHPGTAPPELGLRGRLNITLRVSGFLEHHHHHH	not soluble
MSLRVIDGGVTAPKGFKANGYKEGKFGVAIIISEKDAVGAGTFTTNKVVAHPVVLSRELIKNRDKFRAIVANSGNANCFTKDGMEDAKEMQRLVAELFNINEDEVLVASTGVIGRKMDMNIIKDRINKVYNLIKEGNSSINAAKAIMTTDTKPKEIAVEFEVNGKTVRVGGIAKGAGMIAPNMLHATMLCFITTDIEIDKESLTNILQKVVDKTFNNISVDGDTSTNDTVFVLANGLSGVNYEECGEEFENALLYVCRELAKMIVKDGEGATKFMEVVVKGAKTEEDAVKASKAIVNSLLVKTAVFGGDPNWGRIVAAVGYSGADFNPEVVDVILSNYKDEVYLVKDGIPLADEGTEELKKAEEIMKSDEIKIVVDLKMGEFENVCYGCDLSYEYVRINAEYTTEGHHHHHH	soluble
MAHHHHHHMMLRSHVGYDDLQNGGSDQPVSFLRSAAGRTYLADGSSALSSAQLTAAQKLLPLTDRSSQAALDAARLEPPIEHASVMYHGCQQAVLNAELREKVEAHYKHWSSRVEELQALLSDLPTESALHSTRAVENLHSYLGAYRCTEDMLVTPSEVVEQHALRTPVPEIDVMFQMPAIPMDTMRRALDDLLRSPYLLAPLDTHLAHLSLLDKLGQLSWSGEGEVTAPLSKKPRGKRAVARKDCTVDESNETGVVLQAEEAAAEEDIYPSRAAVAMHERLHYNPGDYAQRELKKSEEALRELQDRMQTAKRQKEEAIDAADPLTALRNLHAQVDFSNDLLLLYRARMALVSLHSDDTRDFRRDVVDLIDDSHQSVQAVHRYAREALPSVQHDVRAMTEVIRQTQQRLIAMQATEAAADAGMRAHLCDMDKAARVLWEEVGALLEKIAENARERGRYAQKCMSLREQRAKEAAAVNAQLQAQSAHCERLCRCEEVLTRWNQAGDVFGKYMDACVPKLLKHLAAVEESDADLAQREAEGYVGCYEQFVYAAEEARAKRCTQADRMRLLQRSTLLNQERASDTMDPDAPAHAQRLDDVSRELDEVQLYLKYLSDMEADRKAEVDPVLRGVLARQTQAQLVTTGEEGEAEKPLPTPGLLEDAPAASTADAKPSLASPSTAAETTKSTSAVPATAAGDGAVVAATTTATTTAPPSLSVTVAHPFVTARLIGLAHESDYISQQGQLLGQEMQAVEAKWTGLRHSRKELQAMEEKYKNGDDIRALLGVEKL	soluble
AIASDEPKLSERSLHKFENVRIIIKDENKTCFQGELNIGEDWFCLLSEIDPSNSLRVNAKDLLLHAICQRDEHCEKPSIYCQVQGESDEDQYETIYIVPEESSQVEKIFETFCDLVRRTPVPLTDEEGSDGEWYGNVPWSVGNCDSEQFEDAEETDTQL	soluble
MGSDKIHHHHHHMAADVATPFQQLRINKFAAIQNGQFVASFKVPRSAGFTLIIPNADDFLTNNISIMTPDNKVLDASNFAAFGVEFSQFSPDNELTAFLATGNSWIIKFSDVIPGSYTVRGVTSSAKSHLPIRVLVKNSDIALHLVIGSPSNIPMVNHHLPISVLMVDGDLPYINGNVSFEIFKDGEALQHANIRDDGVYPDYQANDGTYSTLFMPLSAGVYDVLINISGRNKNGDKFEAQIFRSFKVLQDNVYLTGKHSEVLIDEDGDGYNDALMLEFETGGVFQEEGVYYITVNLETNDGRTLVAHQRIESPEKKFYVKFDGKYLGTLDYSGAFKFFSIVIEYNDSIIHLNQSFGSTSYYDHDSWERDDLLYLGNVTFEPIYSADGRFIEMIDVSFEVDTLPTAARFGYSATITTVGNEHVGVYGNPDIELKKGINRITFSIPAADFAKLQSNTALKISQLTMYPLIKGGNVISKRNVATSELYSCWDFRGCSTAENAIPVAVDDEVTSTGKAMYIHVAQNDYDGDLLKVSDQKKDNFGTLTQWSIQFD	not soluble
MLVPRGSMAPIGSVVIVGRIILSGRGGPITAYSQQTRGLLGCIITSLTGRDKNQVEGEVQVVSTATQSFLATCVNGACWTVFHGAGSKTLAGPKGPITQMYTNVDQDLVGWPAPPGARSLTPCTCGSSDLYLVTRHADVIPVRRRGDTRGSLLSPRPISYLKGSSGGPLLCPSGHVVGIFRAAVCTRGVAKAVDFIPVESMETTMR	soluble
MSLGEPMKQEKQQFIKTDWTIDMINRRQFEKYAIDILTATKDIHRGGWVERIDNKAWQYVRVYENGDIEVLITLQIIRFHKYFDTPVWLQFNPNHLLPADYVQLDHVMKYVDHSHLTRADLANDIYNINLQRYDFGLFGVTRDIYRSLSGDLETRYWGRRKSERQIRLYDKMREMKKHGKADDIPDGITDWWRLEFQFRGGKVESWQEEVMDKMQSFHVLAVDDNDDLSEIDKAILARVNADKFDFKRVGKRYAAKIRKMVRENVGFDTTVAELSLKTFNEQKDELQRQLDSMLAKYNIGAQTEEMTAYFEEELKQTGNLDFSVVESESALERNVIRNIAKTWREENSLTHRTNTEGHHHHHH	not soluble
MKIVDANVLLYAVNTTSEHHKPSLRWLDGALSGADRVGFAWVPLLAFVRLATKVGLFPRPLPREAAITQVADWLAAPSAVLVNPTVRHADILARMLTYVGTGANLVNDAHLAALAVEHRASIVSYDSDFGRFEGVRWDQPPALL	soluble
MFNKILVVCVGNVCRSPTAERLLKRFHPSLTVASAGLGALVGKGADPAAASVASAHDLSLENHCARQISARLCREYDLILTMEKRHIAALCDIAPEMRGKVMLFGHWDSEREIPDPYRKSRDAFEAVYTLLERSARQWAQALNAEQGKP	not soluble
GATITHQEKLLTVDTTAHPFLKALGGHEGTDIFPLFMDPYNGLMVMRASFAPGLTLPLHFHTGTVHMYTISGCWYYTEYPGQKQTAGCYLYEPGGSIHQFNTPRDNEGQTEVIFMLSGCNVNFTQDGTYLGLSDAGVIKNWVDRAIREQDNGLRYIAAAVPTYAA	soluble
MSTEIKTQVVVLGAGPAGYSAAFRCADLGLETVIVERYNTLGGVCLNVGCIPSKALLHVAKVIEEAKALAEHGIVFGEPKTDIDKIRTWKEKVINQLTGGLAGMAKGRKVKVVNGLGKFTGANTLEVEGENGKTVINFDNAIIAAGSRPIQLPFIPHEDPRIWDSTDALELKEVPERLLVMGGGIIGLEMGTVYHALGSQIDVVEMFDQVIPAADKDIVKVFTKRISKKFNLMLETKVTAVEAKEDGIYVTMEGKKAPAEPQRYDAVLVAIGRVPNGKNLDAGKAGVEVDDRGFIRVDKQLRTNVPHIFAIGDIVGQPMLAHKGVHEGHVAAEVIAGKKHYFDPKVIPSIAYTEPEVAWVGLTEKEAKEKGISYETATFPWAASGRAIASDCADGMTKLIFDKESHRVIGGAIVGTNGGELLGEIGLAIEMGCDAEDIALTIHAHPTLHESVGLAAEVFEGSITDLPNPKAKKK	soluble
MSKLAELQAETREIIEDLLNDGSEPNALYIIEHHIAHHDFDLLEKIAVDAFKAGYEVSEAEEFKDDDGKPIFCFDIISEVELKAEIIDAQQKEILPLLEKHNGIYDGWGTYFEDPNADDDEYGDDGEFLDDEDEYGDDGEFFDDEDEEEPRVH	not soluble
MEESDQTVLLPNVENEIGSFYHDMPDEKLLRHIKAIFDEASLRPSLTKNVPSTSSQVTEELNKVEIRDPKHEMQDEQYLSIFENPSGVQYNQADGSFSWNNRFHSDNSVQYINVLNNYGCEGADTLLNQSDSSDETDESIEERRTPRGNRQSRSNLTSKPSAKYWTKRGGDPIVNCSCSICGSKFSTIRCLLDHRHQEHSLKDMMMCGLCGKEFSKRTHIYLHLSQEYKVYHCDGCNTSFASKWHLEKHRCKENETIDDKKRRRTGRVNAEEIKVIKEEIQDEEFGGVVLSNENHEKSKEDRFQFACVLCGKKYQHYHWLLKHRTKCLETTDEIQEFKCNVCYRRYNSSFWFERHMEKCNSSTALPPALLDQTISCPNCHKKYQNEYWFDYHKKHCPDITPALSDVHLDVNSLRDRRPREGEISVVPDVNLFGIEPEREDDNDDDEDADATISSSSSSTGNLVNIPCSICGKFCVGVASLLHHRKQIHGLTAMLTCGVCTKKFNTLSSIRRHMSMEYSIFRCQQCGRNCIDRTTLDRHECFKPYKIRDKRLFNIQNISVLKCPDCRATFANLNVLSEHRKTCQYGNVFDNIQQPGSSSLRQHHRSDTNGAALQRKITSRVRLDSNTPEKWTCRDCHASFHNLQALCSHRHESHGKEMFQCNNCSETLPNYRALHDHNMMHCRNNRSTNETTTRRYSEEDINYDYMDNVQIFVVEESEIFIPIQPHFSRK	not soluble
TVPGATTTSSAATETMENVKKCKNFLSTLIKLASSGKQSTETAANVKELVQNLLDGKIEAEDFTSRLYRELNSSPQPYLVPFLKRSLPALRQLTPDSAAFIQQSQQQPPPPTSQ	soluble
MSLTLDLRESEIVEAVYESNHTWVSVEAKIDYELDPTVLFHLTEENAGDRFYYKKNDNKTSFFGYHAITRFKNDFENKQSIFREWQKYKSDIELIHPSSDKHHLKICGGFQFSMHKSGDEWREFGINHFILPEVLITMENGVSYITYTVKAEQFEIEQFKALIAHLTQNTIDSEFEIGNIKRIEDIYKDEWRDLVKDTIDVLDEHKKIVLARKRLVMFDKNINIPYILQKASQGEHNSYLFVLESQDSIFFSQTPEQLMEVNNGILSTKAVAGTIKRTHQDEVDKENIQAFLNDDKNLNEHRFVVESILNDIAPYVRDITFNETPQILTNDHLYHLYTKIKGQLENDSYIGLLDNLHPTPALGGYPKAEAIEYIEQNEFGTRGLYGAPVGYIDMNDDCEFIVAIRSMLIKKNQATLFAGCGIVKNSDADSEVEETAVKFNPMMKALGVEEYEGHHHHHH	soluble
MDDPKQPTWNVSPSLRRHARELRKKSTEAERLMWGELRDKRLNGFSFKRQVPIGPYIADFACHAKKLVVELDGGQHFSDDGERSDAARTAAIEARGFRVIRFSNHEVMTNRAGVLQSIADVLAARVLTPTLSRKRERERAKRAAKPRSDAGAANDQGDE	not soluble
MDRDELVRYLDAYLRIQDFPQDPSLNGLQVEGKRTVRKVGAAVDAGEAIFRKALEEEVDFLIVHHGLFWGKPFPIVGHHKRRLETLFQGGINLYAAHLPLDAHEEVGNNFVLARELGLVDLTPWDVGVKGRFPQPTPLLQVADRLGQLTGMQPLVHQGGLDHVETVILVSGSGTGLLPKVDADLFVTGEPKHSVFHETFERGLNVIYAGHYDTETFGVKALAAHLEARFGLPWVFLDHPTGL	soluble
